Earlier results in paper PMC6484326.

Target: GPIIb-IIIa (Homo sapiens) (UniProt P08514)

fibrinogen (from UniProt P02671)
Kd: 100 nM
